We go through 54 molecules from patent US20220119492A1 (MEDIKINE, published 2022).

B1: SEQ ID NO 3114 (peptide)
peptide: GGELLVDCFKVKVGELCDLFFG
B2: SEQ ID NO 3137 (peptide)
peptide: GGRYVHDCFIAQVGDLCDLFLH
B3: IL-2Rβγc ligand having SEQ ID NO: 1263 (peptide)
peptide: GGWYPCWMAQLGELCDLDGGGGSGGVVCQDWEGVELCWQGG
B4: SEQ ID NO 2855 (peptide)
peptide: RLASDWWDCYIAKVGELCDF
B5: SEQ ID NO 2886 (peptide)
peptide: LVDCFKVKVGELCDLF
modifications: disulfide 4-13 (inferred)
B6: SEQ ID NO 2874 (peptide)
peptide: NWFHDCFLARVGDLCDLFLD
modifications: disulfide 6-15 (inferred)
B7: SEQ ID NO 2891 (peptide)
peptide: WYPCWGELCDLD
B8: SEQ ID NO 2873 (peptide)
peptide: EIFKDCLFANVGELCEIFPS
B9: SEQ ID NO 2876 (peptide)
peptide: EFFHDCYVARVGELCDLFGW
B10: SEQ ID NO 2840 (peptide)
peptide: LESLDCFFARIGDLCEIWDV
B11: SEQ ID NO 2837 (peptide)
peptide: GGYYDCLIAEVGELCDMPGQ
B12: SEQ ID NO 2846 (peptide)
peptide: VTVQDCYFARVGDLCDLFSP
B13: SEQ ID NO 2867 (peptide)
peptide: HWVRDCFLAKVGELCDLFLW
B14: SEQ ID NO 2858 (peptide)
peptide: ELLVDCFKVKVGELCDLFFG
modifications: disulfide 6-15 (inferred)
B15: SEQ ID NO 2881 (peptide)
peptide: WTCWLTQLGYDCNLDVVDQSLG
B16: SEQ ID NO 2859 (peptide)
peptide: RYVHDCFIAQVGDLCDLFLH
B17: SEQ ID NO 2841 (peptide)
peptide: WQIFDCYLAQVGELCDLQDT
modifications: disulfide 6-15 (inferred)
B18: SEQ ID NO 2862 (peptide)
peptide: RYLYDCFLALVGDLCVKFHQ
B19: SEQ ID NO 2870 (peptide)
peptide: DWLPDCYFANVGDLCSLFGS
B20: SEQ ID NO 2848 (peptide)
peptide: WAFYDCRNAQVGDFCDLWEF
B21: SEQ ID NO 2887 (peptide)
peptide: VHDCFIAQVGDLCDLF
B22: SEQ ID NO 2836 (peptide)
peptide: RWMFDCLFARVGELCDIRPW
modifications: disulfide 6-15 (inferred)
B23: SEQ ID NO 2849 (peptide)
peptide: SMDQDCYFAQVGELCVLFNQ
B24: SEQ ID NO 2878 (peptide)
peptide: WYTCMMDWLGVHCELE
B25: SEQ ID NO 2861 (peptide)
peptide: RSLVDCFLVKVGDLCDFFNW
B26: SEQ ID NO 2852 (peptide)
peptide: YDCYIAQVGELCDI
B27: SEQ ID NO 2877 (peptide)
peptide: SYLCWLDHWGVICEED
B28: SEQ ID NO 2856 (peptide)
peptide: RLLRDCFLAKVGDLCELFVW
B29: SEQ ID NO 2857 (peptide)
peptide: QWFHNCFLARVGDTCDLFLW
B30: SEQ ID NO 2882 (peptide)
peptide: DGSWYTCWFTQLGEWCEQDDAK
B31: SEQ ID NO 2890 (peptide)
peptide: WPCWLGELCDLD
B32: SEQ ID NO 2850 (peptide)
peptide: GGYYDCLIAEVGELCDIYGR
B33: SEQ ID NO 2883 (peptide)
peptide: EFWGWQCWQEPLGWSCDLEWMD
B34: SEQ ID NO 2879 (peptide)
peptide: QMVWWDCWSTQEGPVCELNWTA
B35: SEQ ID NO 2845 (peptide)
peptide: VSRYDCYIAKVGELCDFFEF
B36: SEQ ID NO 2875 (peptide)
peptide: YSFKDCYFAKVGELCELFLW
B37: SEQ ID NO 2839 (peptide)
peptide: TPWYDCYIANVGDLCDFASA
B38: SEQ ID NO 2842 (peptide)
peptide: GRYPDCYIAHVGELCEFYDG
B39: SEQ ID NO 2889 (peptide)
peptide: WPCWALGELCDLD
B40: SEQ ID NO 2851 (peptide)
peptide: SNWHDCLFAQVGELCDLPGS
modifications: disulfide 6-15 (inferred)
B41: SEQ ID NO 2865 (peptide)
peptide: WGKLVRDCFLAKVGDLCDLFLW
B42: SEQ ID NO 2863 (peptide)
peptide: AHFYDCFWAKAGELCDLWPS
modifications: disulfide 6-15 (inferred)
B43: SEQ ID NO 2871 (peptide)
peptide: HWFLDCFLANVGDLCDFFGN
B44: SEQ ID NO 2838 (peptide)
peptide: VVCYACDIAHVGELCDLTCR
B45: SEQ ID NO 2872 (peptide)
peptide: NWLPDCLFANVGELCDIFPW
B46: SEQ ID NO 2847 (peptide)
peptide: WEWYDCLMAQVGELCDFEGN
B47: SEQ ID NO 2869 (peptide)
peptide: QFVKDCFLAQVGDLCELFLW
B48: SEQ ID NO 2853 (peptide)
peptide: SWLSDLQDCYIAQVGDLCQI
B49: SEQ ID NO 2860 (peptide)
peptide: KWVHDCFLAKVGDVCDLFVV
B50: SEQ ID NO 2880 (peptide)
peptide: YWCSVWQLGSVCEMNNEETQ
B51: SEQ ID NO 2888 (peptide)
peptide: WPCWAALGELCDLD
B52: SEQ ID NO 2866 (peptide)
peptide: THVHDCFLAKVGDLCDLFIV
B53: SEQ ID NO 2844 (peptide)
peptide: LVYYDCYMAQVGELCDLPSL
modifications: disulfide 6-15 (inferred)
B54: SEQ ID NO 2868 (peptide)
peptide: HGILDCYFAKVGELCELFDW

Bridge positions count the residues as written; N and C are the ends. Ends that are not written are not given here.

The first assay deals with T1, human IL-2Rβ (CD122 protein, Fc Tag) (27-239) (human, UniProt P14784 27-239).
T1 construct: range 27-239; Bought protein; also called hu-IL-2Rβ subunit; IL-2Rβ subunit; not shown: Fc tag of the bought protein
T1 sequence (looked up): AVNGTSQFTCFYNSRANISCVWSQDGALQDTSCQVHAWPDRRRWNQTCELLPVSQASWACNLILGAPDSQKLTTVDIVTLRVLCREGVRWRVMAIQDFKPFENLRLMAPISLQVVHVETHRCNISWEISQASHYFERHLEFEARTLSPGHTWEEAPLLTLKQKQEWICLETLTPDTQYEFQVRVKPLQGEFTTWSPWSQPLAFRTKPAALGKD
As to the kind of experiment: competition ELISA, peptide tracer. The protocol:
(§1) Binding of Fc fusions to IL-2Rβ and IL-2Rγc were measured using a competition binding ELISA with biotinylated peptide/NeutrAvidin-HRP tracer. ELISA plate was prepared as described in Example 27.
(§2) The plate was washed 4 times with PT (1×PBS, 0.05% Tween® 20) buffer. Fifty (50) μL of IL-2R ligands serially diluted in PBT was added to appropriate wells then incubated at 4° C. for 1 hr.
(§3) At the appropriate time, the precomplexed bn-peptide/NA-HRP tracer was diluted to 2-fold its predetermined binding EC80 (typically 30 to 10 nM) without washing. fifty (50) μL of bn-peptide/NA-HRP tracer was added to each well and incubated at 4° C. for 45 mins.
With B1, the IC50 was less than 100 µM. On the same count and under the same terms, with B2 the figure was less than 100 µM. B3: the binding result is given as “binds”.

In another assay the target is T2, cynomolgus monkey IL-2Rβ subunit (cynomolgus monkey).
T2 construct: Bought protein; also called cyno-IL-2Rβ subunit
T2 sequence (Q38J85 whole entry): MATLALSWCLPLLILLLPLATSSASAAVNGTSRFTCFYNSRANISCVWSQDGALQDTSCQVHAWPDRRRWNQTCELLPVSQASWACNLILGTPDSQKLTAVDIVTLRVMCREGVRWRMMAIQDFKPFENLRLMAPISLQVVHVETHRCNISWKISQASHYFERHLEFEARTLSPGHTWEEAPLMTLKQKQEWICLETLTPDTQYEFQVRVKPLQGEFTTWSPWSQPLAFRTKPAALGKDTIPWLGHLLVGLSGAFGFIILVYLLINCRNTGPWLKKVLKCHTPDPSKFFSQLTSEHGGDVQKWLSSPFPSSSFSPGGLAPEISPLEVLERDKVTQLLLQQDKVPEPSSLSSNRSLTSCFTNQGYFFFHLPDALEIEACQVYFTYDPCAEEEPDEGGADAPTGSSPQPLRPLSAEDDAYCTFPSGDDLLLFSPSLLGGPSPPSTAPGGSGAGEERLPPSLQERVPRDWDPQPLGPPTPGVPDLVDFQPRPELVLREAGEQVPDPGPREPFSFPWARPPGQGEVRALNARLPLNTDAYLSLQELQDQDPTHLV
Nature of the assay: competition ELISA, peptide tracer. The method, then:
as §1, §2, §3
In turn, B1 displayed an IC50 of less than 100 µM. In turn, B2 registered an IC50 of less than 100 µM.

The target of a further assay is T1, human IL-2Rβ (CD122 protein, Fc Tag) …. Nature of the assay: phage ELISA competition. In short, it runs like this:
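IC50 comes from absorbance measured across a dilution series of ligand in a competitive binding ELISA against human IL-2Rβ-Fc, with a phage tracer as the competitor. The phage tracer (50 μL) was added with no wash step for 45 min at 4° C. Detection of bound phage used TMB for 1 to 15 min at 25° C, then stop solution and a reading at 450 nm.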
The molecule B4 showed an IC50 of less than 100 µM. The same measure, in the same setting: with B5 the figure was less than 100 µM; with B6, less than 100 µM; with B7, less than 100 µM. On the same count and under the same terms, in the case of B8 it was less than 100 µM; in that of B9, less than 100 µM; in that of B10, less than 100 µM.

B11 yielded a 50% inhibitory concentration (IC50) of less than 100 µM. Same read-out and setting: with B12 the figure was less than 100 µM; with B13, less than 100 µM. Same read-out and setting: in the case of B14 it was less than 100 µM; in that of B15, less than 100 µM. On the same count and under the same terms, in the case of B16 it was less than 100 µM; in that of B17, less than 100 µM; in that of B18, less than 100 µM.

The molecule B19 had an IC50 of less than 100 µM.

The molecule B20 gave an IC50 of less than 100 µM. Still for that read-out and setting: with B21 the figure was less than 100 µM; with B22, less than 100 µM.

B23: the half-maximal inhibitory concentration (IC50) was less than 100 µM. Still for that read-out and setting: in the case of B24 it was less than 100 µM; in that of B25, less than 100 µM; in that of B26, less than 100 µM. On the same count and under the same terms, in the case of B27 it was less than 100 µM; in that of B28, less than 100 µM. The same measure, in the same setting: with B29 the figure was less than 100 µM; with B30, less than 100 µM. B31: the IC50 was less than 100 µM.

B32 gave an IC50 of less than 100 µM. Still for that read-out and setting: in the case of B33 it was less than 100 µM; in that of B34, less than 100 µM.

The molecule B35 gave an IC50 of less than 100 µM.

Turning to B36, the IC50 was less than 100 µM. Molecule B37 returned a half-inhibitory concentration (IC50) of less than 100 µM.

B38 displayed an IC50 of less than 100 µM. B39 returned an IC50 of less than 100 µM.

Take B40: the IC50 was less than 100 µM.

B41 registered an IC50 of less than 100 µM. On the same count and under the same terms, with B42 the figure was less than 100 µM; with B43, less than 100 µM. Same read-out and setting: with B44 the figure was less than 100 µM.

In turn, B45 had an IC50 of less than 100 µM. The same measure, in the same setting: in the case of B46 it was less than 100 µM; in that of B47, less than 100 µM. On the same count and under the same terms, with B48 the figure was less than 100 µM.

The molecule B49 gave an IC50 of less than 100 µM.

B50 had an IC50 of less than 100 µM. Same read-out and setting: with B51 the figure was less than 100 µM; with B52, less than 100 µM.

On to B53, for which the IC50 is less than 100 µM. Same read-out and setting: with B54 the figure was less than 100 µM.
